Laboratory results taken from patent US20200247894A1 (Regeneron, published 2020).
Where a chain is given by its changes, count along the chain named. Blank lines part the entries; values can stand above or below the binder they belong to.

How the values were obtained:
[1] = biological target: T1, Macaca fascicularis IL2Rγ extracellular domain expressed with a C-terminal myc-myc-hexahistidine tag (Macaca fascicularis); test: SPR, captured mAb, 25C, dissociation pH 6.0
T1 construct: also called mfIL-2Rg-MMH; mfIL-2RG-MMH
T1 chain: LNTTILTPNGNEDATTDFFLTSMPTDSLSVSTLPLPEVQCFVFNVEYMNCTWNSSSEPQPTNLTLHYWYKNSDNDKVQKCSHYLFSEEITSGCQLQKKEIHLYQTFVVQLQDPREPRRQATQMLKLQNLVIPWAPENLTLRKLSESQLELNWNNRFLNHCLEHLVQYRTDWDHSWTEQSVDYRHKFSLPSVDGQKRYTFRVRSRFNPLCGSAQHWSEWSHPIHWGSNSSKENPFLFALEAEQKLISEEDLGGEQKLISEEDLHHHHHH
Experimental: (§1) The dissociation rate constant (kd) for binding of IL-2Rγ reagents to purified anti-IL2Rγ monoclonal antibodies was determined using a real-time surface plasmon resonance based Biacore 4000 biosensor platform. […] The CM5 Biacore sensor surface derivatized by amine coupling with monoclonal mouse anti-human Fc antibody (GE, Catalog # BR-1008-39) was used to capture anti-IL2Rγ monoclonal antibodies expressed with human IgG4 Fc. All the IL2Rγ reagents were expressed with a C-terminal myc-myc-hexahistidine tag (subsequently referred to with a -MMH suffix). […] The dissociation of bound IL-2Rg-MMH was performed in PBS-T-pH7.4 or PBS-T-pH6.0 running buffers for 6 minutes.
(§2) Dissociation rate constants (kd) in two running buffers were determined by fitting the real-time binding sensorgrams to a 1:1 binding model using Scrubber 2.0c curve-fitting software. Values of dissociation rate for […] mAb binding to hIL-2RG-MMH and mfIL-2RG-MMH at 25° C. and 37° C. in PBS-T-pH7.4 and PBS-T-pH6.0 is shown in Table 2-1 through Table 2-8.

[2] = biological target: T2, Human IL2Rγ extracellular domain expressed with a C-terminal myc-myc-hexahistidine tag (human); test: SPR, captured mAb, 25C, dissociation pH 6.0
T2 construct: also called hIL-2Rg-MMH; hIL-2RG-MMH
T2 chain: T1 chain with A14T, T16A, S22T, R141H, S228T
Experimental: as §1, §2

[3] = biological target: T2, Human IL2Rγ extracellular domain …; test: SPR, captured mAb, 37C, dissociation pH 6.0
Experimental: as §1, §2

[4] = biological target: T1, Macaca fascicularis IL2Rγ extracellular …; test: SPR, captured mAb, 25C, dissociation pH 7.4
Experimental: as §1, §2

[5] = biological target: T2, Human IL2Rγ extracellular domain …; test: SPR, captured mAb, 25C, dissociation pH 7.4
Experimental: as §1, §2

[6] = biological target: T2, Human IL2Rγ extracellular domain …; test: SPR, captured mAb, 37C, dissociation pH 7.4
Experimental: as §1, §2

B1: H4H12913P2 (antibody, human IgG4 S228P, kappa, V domains shown)
VH: EVQLVESGGGVVRPGGSLRLSCAASGFTFDDYGMSWVRQAPGKGLEWISSINRNGGSADYADSVKGRFTISRDNAKNSLFLQMSSLRAEDTALYHCASGEFRFDYWGQGTLVTVSS
VL: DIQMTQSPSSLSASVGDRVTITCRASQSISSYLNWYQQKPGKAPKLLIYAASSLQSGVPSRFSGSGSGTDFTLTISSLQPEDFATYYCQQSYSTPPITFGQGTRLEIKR
notes: anti-IL2Rgamma mAb expressed with human IgG4 Fc
100 nM Ag Bound (RU) [1]: 44 RU
koff [1]: 0.000992 s⁻¹
t1/2 [1]: 12 min
100 nM Ag Bound (RU) [2]: 43 RU
koff [2]: 0.00105 s⁻¹
t1/2 [2]: 11 min
100 nM Ag Bound (RU) [3]: 59 RU
koff [3]: 0.00383 s⁻¹
t1/2 [3]: 3 min
100 nM Ag Bound (RU) [4]: 57 RU
koff [4]: 0.000272 s⁻¹
t1/2 [4]: 43 min
100 nM Ag Bound (RU) [5]: 56 RU
koff [5]: 0.000303 s⁻¹
t1/2 [5]: 38 min
100 nM Ag Bound (RU) [6]: 82 RU
koff [6]: 0.00116 s⁻¹
t1/2 [6]: 10 min

B3: H4H12863P (antibody, human IgG4 S228P, kappa, V domains shown)
VH: QVQLVESGGGVVQPGRSLRLSCTASGFTFRSYDMYWVRQAPGKGLEWVSVITYDGNNKYYADSVKGRFTISRDNSKNTLFLQMSSLRPEDTAVYYCAKRGLIWVGESFDYWGQGTLVTVSS
VL: DIQMTQSPSTLSASVGDRVTITCRASQSINSWLAWYQQKPGKAPNLLIYKASSLESGVPSRFSGSGSGTEFTLTISSLQPDDFATYYCQQYKSYSWTFGQGTKVEIKR
notes: as for B1
100 nM Ag Bound (RU) [1]: 118 RU
koff [1]: 0.000761 s⁻¹
t1/2 [1]: 15 min
100 nM Ag Bound (RU) [2]: 116 RU
koff [2]: 0.000762 s⁻¹
t1/2 [2]: 15 min
100 nM Ag Bound (RU) [3]: 145 RU
koff [3]: 0.00226 s⁻¹
t1/2 [3]: 5 min
100 nM Ag Bound (RU) [4]: 155 RU
koff [4]: 0.000194 s⁻¹
t1/2 [4]: 59 min
100 nM Ag Bound (RU) [5]: 151 RU
koff [5]: 0.000172 s⁻¹
t1/2 [5]: 67 min
100 nM Ag Bound (RU) [6]: 176 RU
koff [6]: 0.000672 s⁻¹
t1/2 [6]: 17 min

B5: H4H12858P (antibody, human IgG4 S228P, kappa, V domains shown)
VH: EVQLVESGGDLVQPGGSLRLSCTASGFIFRNYAMNWVRQAPGKGLEWLSGILGSNDNTYYVDSVKGRFTISRDNSRNTLYLQMNSLRAEDSAVYYCAKGDAGGFDYWGQGTLVTVSS
VL: DVVMTQSPLSLPVILGQPASISCRSSQSLVSSDGNTYLNWFQQRPGQSPRRLIYKVSNRDSGVPDRFSGSGSGTDFTLKISRVEAEDVGAYYCMQGSYWPPTFGQGTKLEIKR
notes: anti-IL2Rgamma mAb expressed with human IgG4 Fc; also called REGN9433
100 nM Ag Bound (RU) [1]: 100 RU
koff [1]: 0.000385 s⁻¹
t1/2 [1]: 30 min
100 nM Ag Bound (RU) [2]: 103 RU
koff [2]: 0.000377 s⁻¹
t1/2 [2]: 31 min
100 nM Ag Bound (RU) [3]: 136 RU
koff [3]: 0.00172 s⁻¹
t1/2 [3]: 7 min
100 nM Ag Bound (RU) [4]: 111 RU
koff [4]: 0.000171 s⁻¹
t1/2 [4]: 68 min
100 nM Ag Bound (RU) [5]: 111 RU
koff [5]: 0.000184 s⁻¹
t1/2 [5]: 63 min
100 nM Ag Bound (RU) [6]: 141 RU
koff [6]: 0.000661 s⁻¹
t1/2 [6]: 17 min

B7: H4H12859P (antibody, human IgG4 S228P, kappa, V domains shown)
VH: QVQLVQSGAEVKKPGASVRVSCKASGYTFTDYDIHWVRQAPGHGLEWMGWINPNSGGTNYAQKFQGRVTMTRDTSISTVYMDLSRLRSDDTAVYYCARADYSSSYYYYGMDVWGQGTTVTVSS
VL: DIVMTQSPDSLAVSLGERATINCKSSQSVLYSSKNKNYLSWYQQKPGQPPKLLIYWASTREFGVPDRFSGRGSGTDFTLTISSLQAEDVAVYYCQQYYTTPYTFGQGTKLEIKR
notes: as for B1
100 nM Ag Bound (RU) [1]: 37 RU
koff [1]: 0.00413 s⁻¹
t1/2 [1]: 2.8 min
100 nM Ag Bound (RU) [2]: 39 RU
koff [2]: 0.00503 s⁻¹
t1/2 [2]: 2.3 min
100 nM Ag Bound (RU) [3]: 36 RU
koff [3]: 0.0132 s⁻¹
t1/2 [3]: 0.9 min
100 nM Ag Bound (RU) [4]: 51 RU
koff [4]: 0.000871 s⁻¹
t1/2 [4]: 13 min
100 nM Ag Bound (RU) [5]: 54 RU
koff [5]: 0.00111 s⁻¹
t1/2 [5]: 10 min
100 nM Ag Bound (RU) [6]: 55 RU
koff [6]: 0.00454 s⁻¹
t1/2 [6]: 2.5 min

Second part, the binder after the results:

100 nM Ag Bound (RU) [1]: 30 RU
koff [1]: 0.0032 s⁻¹
t1/2 [1]: 3.6 min
100 nM Ag Bound (RU) [2]: 30 RU
koff [2]: 0.00499 s⁻¹
t1/2 [2]: 2.3 min
100 nM Ag Bound (RU) [3]: 19 RU
koff [3]: 0.0239 s⁻¹
t1/2 [3]: 0.5 min
100 nM Ag Bound (RU) [4]: 38 RU
koff [4]: 0.000984 s⁻¹
t1/2 [4]: 12 min
100 nM Ag Bound (RU) [5]: 36 RU
koff [5]: 0.00163 s⁻¹
t1/2 [5]: 7 min
100 nM Ag Bound (RU) [6]: 23 RU
koff [6]: 0.00982 s⁻¹
t1/2 [6]: 1.2 min
B2: H4H12927P2 (antibody, human IgG4 S228P, kappa, V domains shown)
VH: EVQLVESGGGVVRPGGSLRLSCATSGFTFDDYGMSWVRQVPGKGLEWVSSVNRNGGTTDYADSVKGRFTISRDNAKRSLFLQMNSLRAEDTALYHCATGELFFDYWGQGTLVTVSS
VL: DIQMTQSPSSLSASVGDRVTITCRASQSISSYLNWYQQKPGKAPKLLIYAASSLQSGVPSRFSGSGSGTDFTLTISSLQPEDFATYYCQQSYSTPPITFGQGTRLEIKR
notes: as for B1

100 nM Ag Bound (RU) [1]: 129 RU
koff [1]: 0.00111 s⁻¹
t1/2 [1]: 10 min
100 nM Ag Bound (RU) [2]: 126 RU
koff [2]: 0.00118 s⁻¹
t1/2 [2]: 10 min
100 nM Ag Bound (RU) [3]: 147 RU
koff [3]: 0.00374 s⁻¹
t1/2 [3]: 3 min
100 nM Ag Bound (RU) [4]: 168 RU
koff [4]: 0.000191 s⁻¹
t1/2 [4]: 61 min
100 nM Ag Bound (RU) [5]: 164 RU
koff [5]: 0.000204 s⁻¹
t1/2 [5]: 57 min
100 nM Ag Bound (RU) [6]: 184 RU
koff [6]: 0.000773 s⁻¹
t1/2 [6]: 15 min
B4: H4H12922P2 (antibody, human IgG4 S228P, kappa, V domains shown)
VH: QVQLVESGGGVVKPGGSLRLSCAASGFTFSNSGIHWVRQAPGKGLEWVALISYAGSNKYYADSVKGRFTISRDNSKNTLSLQMNSLRAEDTAVYYCAKEVWTGTYDSFDMWGRGTMVTVSS
VL: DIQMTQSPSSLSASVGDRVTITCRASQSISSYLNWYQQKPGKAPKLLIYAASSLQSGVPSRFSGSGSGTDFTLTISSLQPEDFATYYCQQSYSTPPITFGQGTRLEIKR
notes: anti-IL2Rgamma mAb expressed with human IgG4 Fc; also called REGN7256

100 nM Ag Bound (RU) [1]: 96 RU
koff [1]: 0.000439 s⁻¹
t1/2 [1]: 26 min
100 nM Ag Bound (RU) [2]: 93 RU
koff [2]: 0.000417 s⁻¹
t1/2 [2]: 28 min
100 nM Ag Bound (RU) [3]: 120 RU
koff [3]: 0.00148 s⁻¹
t1/2 [3]: 8 min
100 nM Ag Bound (RU) [4]: 94 RU
koff [4]: 0.000179 s⁻¹
t1/2 [4]: 65 min
100 nM Ag Bound (RU) [5]: 82 RU
koff [5]: 0.000139 s⁻¹
t1/2 [5]: 83 min
100 nM Ag Bound (RU) [6]: 110 RU
koff [6]: 0.000599 s⁻¹
t1/2 [6]: 19 min
B6: H4H13538P (antibody, human IgG4 S228P, kappa, V domains shown)
VH: EVQLVESGGGLVQPGGSLGLSCAASGFTFSNYAMSWVRQAPGKGLEWVSAVSGGGGGTYYADSVKGRFTISRDNSKNTVLLQMNSLRAEDTAVYYCARGRTGGLDYWGPGTLVTVSS
VL: B5 VL with L15F, S31D, F41L, K55E, K79T, A90I, S97T, Y98R, Q105G, L109V
notes: as for B1

100 nM Ag Bound (RU) [1]: 128 RU
koff [1]: 0.00116 s⁻¹
t1/2 [1]: 10 min
100 nM Ag Bound (RU) [2]: 129 RU
koff [2]: 0.00136 s⁻¹
t1/2 [2]: 8 min
100 nM Ag Bound (RU) [3]: 141 RU
koff [3]: 0.00246 s⁻¹
t1/2 [3]: 5 min
100 nM Ag Bound (RU) [4]: 125 RU
koff [4]: 0.000481 s⁻¹
t1/2 [4]: 24 min
100 nM Ag Bound (RU) [5]: 121 RU
koff [5]: 0.000596 s⁻¹
t1/2 [5]: 19 min
100 nM Ag Bound (RU) [6]: 139 RU
koff [6]: 0.00111 s⁻¹
t1/2 [6]: 10 min
B8: H4H12871P (antibody, human IgG4 S228P, kappa, V domains shown)
VH: QVQLQESGPGLVKPSQTLSLTCTVSGGSITSGGYYWSWIRQYPGQGLEWIGYIYYSGKTYYNPSFTSRITISVDTSKKQFSLKMSSVTAADTAVYYCARAGFTSSNGWFDPWGQGTLVTVSS
VL: DIQMTQSPSSLSASVGDRVTITCRASQNIRSYLNWYQQKPGKAPKLLIYSASSLQSGVPSRFSGSGSGTDFTLTISSLQPEDFPTYYCQQTYSSPWTFGPGTKVEIKR
notes: anti-IL2Rgamma mAb expressed with human IgG4 Fc; also called REGN9434
